US20110294873A1, “Gene Transfer Vectors Comprising At Least One Isolated DNA Molecule Having Insulator Or Boundary Properties And Methods To Identify The Same” (UNIVERSITÉ DE LAUSANNE, priority 2008, published 2011)

Columns and labels:
HeLa cells = experiment: Neomycin (G418) resistant colony insulator assay in HeLa cells; assay type: cell-based, human; conditions: element between enhancer and minimal promoter/neo, 2 weeks G418
Method: For experimental convenience, Applicants wanted to validate the cHS4 enhancer-blocking activity in HeLa cells (top bars). Using the same approach, the pJC5-4 deriving constructs were stably transfected in HeLa cells. The cHS4 was able to insulate the reporter gene from the LCR activation of nearly 15-fold.
The capacity of the cHS4 to block the Fr-MLV LTR strong enhancer was assessed using the same system in HeLa cells. Additional plasmids were constructed, replacing the β-globin LCR element by the Fr-MLV LTR in both orientations.
FIG. 20. Assessment of the insulator activity of multimerized CTF binding sites using the commonly-used neomycin-resistance insulator assay. The number of neomycin resistant colonies were determined as in FIGS. 15 and 16 after 2 weeks of G418 selection of HeLa cells transfected using the indicated reporter constructs. […]
(A) Schematic representation of the vectors used for the insulator assay based on the quantitation of neomycin-resistant colonies. […] The level of expression of that reporter gene is assessed by the number of neomycin-resistant colonies obtained after stable transfections. […]
(C) Percentage of neomycin-resistant colonies counted 2 to 3 weeks after transfection and G418 selection of HeLa (dashed bars) and K562 (black bars) cells. […]

[1] = system: Fr-MLV LTR enhancer acting on GFP gene in HeLa cells; experiment: First generation two-reporter (DsRed/GFP) enhancer-blocking assay, transient transfection, FACS; assay type: cell-based, human; conditions: element interposed between enhancer and GFP gene
From the text: The strategy elaborated by Applicants to address the potential enhancer-blocking activity of genetic elements consists in setting up a two-reporter genes-assay whereby the potency of suspected insulators can be quantified. A series of plasmids were thus designed, containing a combination of two reporter genes: a DsRed gene, used as the assay system internal control, under the control of a Fr-MLV LTR enhancer/promoter, and a GFP gene under the control of a minimal CMV promoter, but also subjected to the influence of the LTR enhancer. […] By analyzing the expression of both reporter genes by flow cytometry, this system provides a standardized quantitative procedure to assess potential insulator elements. […]
The constructs described in FIG. 14 were used to transfect transiently HeLa cells. The expression of both DsRed and GFP was analyzed by FACS. […]
HeLa cells were transfected with pAG1-3-HS4 (left panel) or pAG1-3-2HS4 (right panel) constructs (respectively constructs #4 and #5 on FIG. 30), and 100′000 cells were analyzed 48 hours later. […]
HeLa cell populations transiently transfected with constructs containing either no cHS4 (noins) or a copy at the GFP extremity (HS4) or two copies flanking the GFP gene (2HS4) were analyzed by FACS. Percentages of GFP-expressing cells (left panel) and GFP mean fluorescence in RLU (right panel) are plotted for each case.

B1: Ins2: 7 direct repeats of the CTF/NF1 binding site from adenovirus type II origin of replication, 5 bp spacing (nucleic acid)
DNA: ATCGATAAGCTTGCATTGGCAACGTGCCATAAGCATTGGCAACGTGCCATAAGCATTGGCAACGTGCCATAAGCATTGGCAACGTGCCATAAGCATTGGCAACGTGCCATAAGCATTGGCAACGTGCCATAAGCATTGGCAACGTGCCATAAGCGGGGGGATCC
modifications: 7xCTF/NF1 from adenovirus type II
occurrence of colonies of neomycin-resistant cells (HeLa cells): significantly reduced the occurrence of colonies of neomycin-resistant cells
decrease of mean fluorescence of GFP-positive cells [1]: approximately three-fold
